{"source": "paper PMC12469269", "about": "“Investigating SMR Peptide Interactions with Breast Cancer-Associated Proteins” (International Journal of Molecular Sciences, 2025)", "key": {"[1]": {"biological_target": "Recombinant Human GRP75/HSPA9B/Mortalin His Protein (human) (UniProt P38646)", "sequence (P38646 47-679)": "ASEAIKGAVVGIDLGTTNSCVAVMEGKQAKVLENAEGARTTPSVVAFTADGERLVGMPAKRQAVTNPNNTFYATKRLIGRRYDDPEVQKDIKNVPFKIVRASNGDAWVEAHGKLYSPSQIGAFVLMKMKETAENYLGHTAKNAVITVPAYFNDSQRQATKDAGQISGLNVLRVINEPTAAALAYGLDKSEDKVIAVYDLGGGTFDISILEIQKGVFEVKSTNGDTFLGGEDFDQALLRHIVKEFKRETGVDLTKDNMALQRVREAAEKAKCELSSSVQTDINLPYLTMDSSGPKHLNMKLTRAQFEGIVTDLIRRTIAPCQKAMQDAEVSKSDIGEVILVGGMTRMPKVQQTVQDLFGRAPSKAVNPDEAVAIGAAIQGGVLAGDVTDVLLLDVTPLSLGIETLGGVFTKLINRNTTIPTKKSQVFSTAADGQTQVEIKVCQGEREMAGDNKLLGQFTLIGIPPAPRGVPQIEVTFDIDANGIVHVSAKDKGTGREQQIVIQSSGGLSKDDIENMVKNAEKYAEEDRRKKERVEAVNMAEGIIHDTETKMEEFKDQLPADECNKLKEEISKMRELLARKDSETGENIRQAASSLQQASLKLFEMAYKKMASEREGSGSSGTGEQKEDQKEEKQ", "assay": "SPR"}, "[2]": {"biological_target": "Recombinant Human Vimentin Protein, CF (human) (UniProt P08670)", "sequence (P08670 whole entry)": "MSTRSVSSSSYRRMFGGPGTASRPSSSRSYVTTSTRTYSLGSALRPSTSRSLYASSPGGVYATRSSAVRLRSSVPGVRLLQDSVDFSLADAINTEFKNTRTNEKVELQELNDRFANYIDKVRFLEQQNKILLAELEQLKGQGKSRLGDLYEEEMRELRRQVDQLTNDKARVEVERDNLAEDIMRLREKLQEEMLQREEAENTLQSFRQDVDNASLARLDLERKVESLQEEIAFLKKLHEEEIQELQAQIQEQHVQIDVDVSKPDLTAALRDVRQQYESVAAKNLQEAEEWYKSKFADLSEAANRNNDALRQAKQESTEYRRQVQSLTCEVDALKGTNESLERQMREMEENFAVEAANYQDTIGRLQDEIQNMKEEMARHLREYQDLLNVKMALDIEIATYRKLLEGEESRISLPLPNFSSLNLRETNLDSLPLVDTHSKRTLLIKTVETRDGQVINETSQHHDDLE", "assay": "SPR"}}, "note": "pKd: −log10 of the molar value."}
{"substance": "SMRwt peptide", "values": [{"measurement": "pKd", "setting": "[1]", "result": 4.68}, {"measurement": "pKd", "setting": "[2]", "result": 5.18}]}
